This is an account of results in patent US20230257479A1 (Genmab, published 2023).

In experiment [1] the target is T1, human 5T4ECDHis (mature protein of SEQ ID NO: 99) (human, UniProt Q13641 32-355).
T1 construct: ECD of human 5T4 (aa 1-355 of Uniprot Q13641) with C-terminal His tag; residues 1-31 are the signal peptide; also called ECD of human 5T4 with a C-terminal His tag
T1 sequence: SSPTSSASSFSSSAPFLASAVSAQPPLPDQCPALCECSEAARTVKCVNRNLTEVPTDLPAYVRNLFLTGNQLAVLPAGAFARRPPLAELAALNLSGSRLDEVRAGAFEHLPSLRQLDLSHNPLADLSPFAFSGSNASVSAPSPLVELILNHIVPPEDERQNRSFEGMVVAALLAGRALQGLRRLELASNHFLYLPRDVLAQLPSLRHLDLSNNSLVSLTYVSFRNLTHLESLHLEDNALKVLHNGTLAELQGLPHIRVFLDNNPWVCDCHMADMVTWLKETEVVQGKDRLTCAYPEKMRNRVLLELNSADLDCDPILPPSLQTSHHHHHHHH
Nature of the experiment: BLI cross-block; competitor (immobilised): IgG1-5T4-A1-F405L.

In experiment [2] the target is T2, full length human 5T4 (SEQ ID NO: 1) on cells (human, UniProt Q13641 32-420).
T2 construct: Uniprot Q13641; residues 1-31 are the signal peptide; Used both for transfected HEK-293 cells and for 5T4-expressing human tumor cell lines
T2 sequence: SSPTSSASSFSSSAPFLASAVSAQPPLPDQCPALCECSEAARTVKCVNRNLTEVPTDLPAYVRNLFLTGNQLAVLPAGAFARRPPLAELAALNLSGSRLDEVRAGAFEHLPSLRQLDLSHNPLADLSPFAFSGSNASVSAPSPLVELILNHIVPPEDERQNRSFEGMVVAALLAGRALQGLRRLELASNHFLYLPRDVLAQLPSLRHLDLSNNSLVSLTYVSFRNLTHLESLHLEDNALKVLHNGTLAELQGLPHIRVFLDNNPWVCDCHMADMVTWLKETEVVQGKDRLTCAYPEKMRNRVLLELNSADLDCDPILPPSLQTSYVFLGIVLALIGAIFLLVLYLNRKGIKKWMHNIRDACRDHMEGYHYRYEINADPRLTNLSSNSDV
The experiment in a line: flow cytometry, HEK-293 cells transfected with human 5T4, PE secondary [II)D]. For orientation: A flow cytometer gives signals particle by particle.

The target in experiment [3] is T1, human 5T4ECDHis (mature protein of SEQ …). Nature of the experiment: BLI, antibody on anti-human IgG Fc Capture biosensor, antigen in solution.
For experiment [4] the target is unchanged. The experiment in a line: BLI cross-block; competitor (immobilised): IgG1-5T4-106-FEAR.
Experiment [5] shares this target. Nature of the experiment: BLI cross-block; competitor (immobilised): IgG1-5T4-059-FEAR.
The target is the same in experiment [6]. The experiment in a line: BLI cross-block; competitor (immobilised): IgG1-5T4-226-FEAR.
For experiment [7] the target is unchanged. The experiment in a line: BLI cross-block; competitor (immobilised): IgG1-5T4-076-FEAR.
Experiment [8] shares this target. Nature of the experiment: BLI cross-block; competitor (immobilised): IgG1-5T4-207-FEAR.
In experiment [9] the target is T3, full length cynomolgus monkey 5T4 on transfected HEK-293 cells (cynomolgus monkey, UniProt Q4R8Y9 35-420).
T3 construct: Uniprot Q4R8Y9; residues 1-34 are the signal peptide; also called cynomolgus 5T4
T3 sequence: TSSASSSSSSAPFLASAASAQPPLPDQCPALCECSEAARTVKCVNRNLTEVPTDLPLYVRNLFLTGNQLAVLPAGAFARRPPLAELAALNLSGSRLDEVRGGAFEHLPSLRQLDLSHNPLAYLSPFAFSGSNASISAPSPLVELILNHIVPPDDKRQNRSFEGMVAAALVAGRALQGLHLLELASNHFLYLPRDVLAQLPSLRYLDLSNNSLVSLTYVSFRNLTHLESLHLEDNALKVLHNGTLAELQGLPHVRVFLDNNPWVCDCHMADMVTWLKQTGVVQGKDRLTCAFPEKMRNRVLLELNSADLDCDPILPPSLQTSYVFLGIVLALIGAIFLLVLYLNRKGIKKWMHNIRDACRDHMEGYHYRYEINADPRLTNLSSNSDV
The experiment in a line: flow cytometry, HEK-293 cells transfected with cynomolgus monkey 5T4, PE secondary [II)D].

Experiment [10] deals with T1, human 5T4ECDHis (mature protein of SEQ …). The experiment in a line: BLI cross-block; competitor (immobilised): IgG1-5T4-127-FEAR.
The target is the same in experiment [11]. The experiment in a line: BLI cross-block; competitor (immobilised): IgG1-5T4-H8-FEAR.
Experiment [12] has the same target. Nature of the experiment: BLI cross-block; competitor (immobilised): IgG1-5T4-085-FEAR.
For experiment [13] the target is unchanged. Nature of the experiment: BLI cross-block; competitor (immobilised): IgG1-5T4-A3-F405L.
For experiment [14], the target named is T3, full length cynomolgus monkey 5T4 on …. Nature of the experiment: flow cytometry, HEK-293 cells transfected with cynomolgus monkey 5T4, PE secondary [II)F].
Experiment [15] addresses T2, full length human 5T4 (SEQ ID NO: 1) on …. The experiment in a line: flow cytometry, HEK-293 cells transfected with human 5T4, PE secondary [II)F].

B1: IgG1-5T4-106-FEAR (antibody, V domains shown)
VH: EVQLVQSGAEVKKPGESLKISCKGSGYRFTSYWIGWVRQMPGKGLEWMGIIYPGDSDARYSPSFQGQVTISADKSISTAYLQWSSLKASDTGMYYCARSVLFDYWGQGTLVTVSS
VL: AIQLTQSPSSLSASVGDRVTITCRASQGISSALAWYQQKPGKAPKLLIYDVSNLESGVPSRFSGSGSGTDFTLTISSLQPEDFATYYCQQFNSYPHTFGQGTKLEIK
notes: Monospecific, bivalent human IgG1 kappa with L234F, L235E, D265A, K409R (FEAR)
As for B1, the corrected association response is 0.85 nm in experiment [1]; -0.02 nm in experiment [4]; 0.01 nm in experiment [5]; -0.02 nm in [6]; -0.02 nm in [7]; -0.01 nm in [8]. Moreover, the corrected association response in [10] is -0.01 nm; in [11], -0.01 nm; in experiment [12], -0.01 nm; in [13], 0.57 nm. Further, in [2], the EC50 (read off the curve) (as a rule, the concentration giving half of the maximal effect) is approximately 0.01 µg/mL. Further, in experiment [3], the Kd (commonly a measure of binding affinity in units of concentration) amounted to 5.5 nM. For the same molecule, the koff (in general, a measure of how fast the partners let go of each other) in experiment [3] worked out at 0.0012 s⁻¹. Moreover, the kon – broadly, a measure of how fast the partners come together – in experiment [3] was 210000 M⁻¹ s⁻¹. The binding result in experiment [9] is recorded as “binds”.

B2: bsIgG1-huCD3-H101G-FEALx5T4-085-FEAR (bispecific antibody)
heavy: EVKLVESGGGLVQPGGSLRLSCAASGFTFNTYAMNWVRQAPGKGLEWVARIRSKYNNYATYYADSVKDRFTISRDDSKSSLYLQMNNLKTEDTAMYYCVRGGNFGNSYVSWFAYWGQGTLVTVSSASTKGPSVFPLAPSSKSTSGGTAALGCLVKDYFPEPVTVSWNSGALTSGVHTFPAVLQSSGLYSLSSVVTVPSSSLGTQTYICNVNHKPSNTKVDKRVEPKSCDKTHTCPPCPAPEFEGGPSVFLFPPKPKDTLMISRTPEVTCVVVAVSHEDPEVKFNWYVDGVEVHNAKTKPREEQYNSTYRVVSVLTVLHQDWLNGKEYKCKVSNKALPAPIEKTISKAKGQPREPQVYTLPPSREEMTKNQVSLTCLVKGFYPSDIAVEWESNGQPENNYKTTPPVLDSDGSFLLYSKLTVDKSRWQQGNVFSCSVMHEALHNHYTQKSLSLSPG
light: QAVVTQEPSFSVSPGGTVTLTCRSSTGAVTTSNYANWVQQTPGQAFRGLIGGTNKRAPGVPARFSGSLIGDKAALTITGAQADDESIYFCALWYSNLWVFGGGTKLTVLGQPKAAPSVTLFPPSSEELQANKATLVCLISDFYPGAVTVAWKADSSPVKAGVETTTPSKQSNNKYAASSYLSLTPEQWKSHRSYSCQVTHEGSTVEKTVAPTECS
VH: EVQLLESGGGLVQPGGSLRLSCAASGFTFSSYAMSWVRQAPGKGLEWVSAISGSGGSTYNADSVKGRFTIFRDNSKNTLYLHMNSLRAEDTAVYYCARDPGYNNVEYLDHWGQGTLVTVSS
VL: AIQLTQSPSSLSASVGDRVTITCRASQGISSALAWYQQKPGKAPKLLIYDASSLESGVPSRFSGSGSGTDFTLTISSLQPEDFATYYCQQFNSYPLTFGGGTKVEIK
notes: Fab-arm exchange product
As to B2, the “EC50 (read off the curve)” value in [14] is approximately 0.4 µg/mL; in [15] it was approximately 0.5 µg/mL.
